The target in one assay is T1, Hsc20 Q46Bpa, P53193.
T1 chain: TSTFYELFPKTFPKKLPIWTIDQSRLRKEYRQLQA
Put plainly: site-specific Bpa photo-crosslinking, SDS-PAGE band quantification. The conditions noted are these: chain shown with the change; in the presence of ATP; UV irradiation; parent: est. 1.0; read off a plot.

The target in a further assay is T2, Hsc20 M51Bpa, P53193.
T2 chain: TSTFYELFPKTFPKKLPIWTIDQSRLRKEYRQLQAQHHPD
The assay is described as above. The conditions noted are these: chain shown with the change; in the presence of ATP; UV irradiation; parent: est. 1.0; read off a plot.

B1: Ssq1 wild-type D246A; E253A (protein)
chain: MLKSGRLNFLKLNINSRLLYSTNPQLTKKVIGIDLGTTNSAVAYIRDSNDKKSATIIENDEGQRTTPSIVAFDVKSSPQNKDQMKTLVGMAAKRQNAINSENTFFATKRLIGRAFNDKEVQRDMAVMPYKIVKCESNGQAYLSTSNGLIQSPSQIASILLKYLKQTSEEYLGEKVNLAVITVPAYFNDSQRQATKDAGKLAGLNVLRVINEPTAAALSFGIDDKRNNGLIAVYDLGGGTFDISILAIEDGVFAVRATNGDTHLGGEDFDNVIVNYIIDTFIHENPEITREEITKNRETMQRLKDVSERAKIDLSHVKKTFIELPFVYKSKHLRVPMTEEELDNMTLSLINRTIPPVKQALKDADIEPEDIDEVILVGGMTRMPKIRSVVKDLFGKSPNSSVNPDETVALGAAIQGGILSGEIKNVLLLDVTPLTLGIETFGGAFSPLIPRNTTVPVKKTEIFSTGVDGQAGVDIKVFQGERGLVRNNKLIGDLKLTGITPLPKGIPQIYVTFDIDADGIINVSAAEKSSGKQQSITVIPNSGLSEEEIAKLIEEANANRAQDNLIRQRLELISKADIMISDTENLFKRYEKLISSEKEYSNIVEDIKALRQAIKNFKANENDMSIDVNGIKKATDALQGRALKLFQSATKNQQNQGK
On to B1, for which the ratio to parent in the assay with Hsc20 Q46Bpa, P53193 came to 0.22; in the assay with Hsc20 M51Bpa, P53193, 0.11.

B2: Ssq1 wild-type E248A; D249A (protein)
chain: MLKSGRLNFLKLNINSRLLYSTNPQLTKKVIGIDLGTTNSAVAYIRDSNDKKSATIIENDEGQRTTPSIVAFDVKSSPQNKDQMKTLVGMAAKRQNAINSENTFFATKRLIGRAFNDKEVQRDMAVMPYKIVKCESNGQAYLSTSNGLIQSPSQIASILLKYLKQTSEEYLGEKVNLAVITVPAYFNDSQRQATKDAGKLAGLNVLRVINEPTAAALSFGIDDKRNNGLIAVYDLGGGTFDISILDIAAGVFEVRATNGDTHLGGEDFDNVIVNYIIDTFIHENPEITREEITKNRETMQRLKDVSERAKIDLSHVKKTFIELPFVYKSKHLRVPMTEEELDNMTLSLINRTIPPVKQALKDADIEPEDIDEVILVGGMTRMPKIRSVVKDLFGKSPNSSVNPDETVALGAAIQGGILSGEIKNVLLLDVTPLTLGIETFGGAFSPLIPRNTTVPVKKTEIFSTGVDGQAGVDIKVFQGERGLVRNNKLIGDLKLTGITPLPKGIPQIYVTFDIDADGIINVSAAEKSSGKQQSITVIPNSGLSEEEIAKLIEEANANRAQDNLIRQRLELISKADIMISDTENLFKRYEKLISSEKEYSNIVEDIKALRQAIKNFKANENDMSIDVNGIKKATDALQGRALKLFQSATKNQQNQGK
For B2, the ratio to parent was found to be 0.28 with Hsc20 Q46Bpa, P53193 and 0.22 with Hsc20 M51Bpa, P53193.

For the origin of these results see paper PMC7289447.
